From patent US20240052048A1 (SUZHOU QIN PHARMACEUTICALS, published 2024)
Where two headings read alike, the source gives them in different places.

B1: GSK2857916 (positive control antibody, not coupled to the toxin molecule) (antibody, V domains shown)
VH: QVQLVQSGAEVKKPGSSVKVSCKASGGTFSNYWMHWVRQAPGQGLEWMGATYRGHSDTYYNQKFKGRVTITADKSTSTAYMELSSLRSEDTAVYYCARGAIYDGYDVLDNWGQGTLVTVSS
VL: DIQMTQSPSSLSASVGDRVTITCSASQDISNYLNWYQQKPGKAPKLLIYYTSNLHSGVPSRFSGSGSGTDFTLTISSLQPEDFATYYCQQYRKLPWTFGQGTKLEIK
notes: also called Belantamab mafodotin antibody; positive antibody
B2: human BCMA (recombinant antigen, tag not stated for the assay) (receptor, UniProt Q02223 1-54, looked up)
chain: MLQMAGQCSQNEYFDSLLHACIPCQLRCSSNTPPLTCQRYCNASVTNSVKGTNA
notes: The ELISA and screening sections say only 'human BCMA'; also called human BCMA antigen

Experiments:
[1] = target: T1, Biotin-labeled human BCMA (human, UniProt Q02223 1-54, limits assumed, Biotin-labeled (site not stated)); experiment: blocking ELISA (OD450): human APRIL coated, antibody premixed with Biotin-labeled human BCMA; blocked ligand APRIL; IC50 table in the figure
T1 sequence (looked up): B2 chain

[2] = target: B2; experiment: ELISA (OD450) on coated human BCMA; EC50 table in the figure
[3] = target: T1, Biotin-labeled human BCMA; experiment: blocking ELISA (OD450): human BAFF coated, antibody premixed with Biotin-labeled human BCMA; blocked ligand BAFF; IC50 table in the figure
[4] = target: T1, Biotin-labeled human BCMA; experiment: blocking ELISA (OD450): human APRIL coated, antibody premixed with Biotin-labeled human BCMA; blocked ligand APRIL; IC50 table in the figure; remark: listed apart in the source
[5] = target: T2, monkey BCMA on BCMA-CHO cells (cynomolgus monkey, UniProt A0A2K5UD97 1-183); experiment: flow cytometry (MFI) on CHO cells expressing monkey BCMA; EC50 table in the figure
T2 construct: whole, on cells; also called monkey BCMA-CHO cells; CHO cells overexpressing monkey BCMA

[6] = target: T1, Biotin-labeled human BCMA; experiment: blocking ELISA (OD450): human BAFF coated, antibody premixed with Biotin-labeled human BCMA; blocked ligand BAFF; IC50 table in the figure; remark: listed apart in the source
[7] = target: B2; experiment: ELISA (OD450) on coated human BCMA; EC50 table in the figure; remark: listed apart in the source
[8] = target: T3, monkey BCMA (recombinant antigen, tag not stated for the assay) (monkey, UniProt A0A2K5UD97 1-53); experiment: BLI (Octet RED96), antibody on FAB2G sensor, monkey BCMA protein at 200, 50, 12.5 nM
T3 construct: The ELISA, screening and BLI sections say only 'monkey BCMA' or 'monkey BCMA protein'; also called monkey BCMA protein; monkey BCMA antigen; not shown: The carrier tag (human IgG1 Fc or His tag) of the bought ACRO antigen

[9] = target: T3, monkey BCMA (recombinant antigen, tag …); experiment: ELISA (OD450) on coated monkey BCMA; EC50 table in the figure
[10] = target: B2; experiment: ELISA (OD450) on coated human BCMA; EC50 table in the figure; remark: listed apart in the source
[11] = target: T4, human-BCMA-His (human, UniProt Q02223 1-54); experiment: ELISA (OD450), GSK2857916 titrated up to 10 µg/mL on Human BCMA-His; EC50 table in the figure
T4 construct: Bought from ACRO Biosystems, catalog BCA-H522y; also called ACRO Biosystems BCA-H522y; not shown: His tag
T4 sequence (looked up): B2 chain

[12] = target: T1, Biotin-labeled human BCMA; experiment: blocking ELISA (OD450): human BAFF coated, antibody premixed with Biotin-labeled human BCMA; blocked ligand BAFF; IC50 table in the figure; remark: listed apart in the source
[13] = target: T5, human BCMA on BCMA-HEK293 cells (human, UniProt Q02223 1-184); experiment: flow cytometry (MFI) on HEK293 cells expressing human BCMA; EC50 table in the figure
T5 construct: whole, on cells; also called human BCMA-HEK293 cells; HEK293 cells overexpressing human BCMA
T5 sequence (looked up): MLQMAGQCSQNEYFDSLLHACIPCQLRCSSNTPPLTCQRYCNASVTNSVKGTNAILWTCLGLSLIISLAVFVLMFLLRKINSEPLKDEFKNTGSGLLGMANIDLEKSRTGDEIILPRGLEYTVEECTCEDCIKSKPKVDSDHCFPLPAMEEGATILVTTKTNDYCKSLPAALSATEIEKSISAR

[14] = target: T5, human BCMA on BCMA-HEK293 cells; experiment: as above; remark: listed apart in the source
[15] = target: T6, human-BCMA-Fc (human, UniProt Q02223 1-54); experiment: BLI (Octet RED96), antibody on FAB2G sensor, human BCMA-Fc at 200, 50, 12.5 nM
T6 construct: Bought from ACRO Biosystems, catalog BC7-H5254; also called ACRO Biosystems BC7-H5254; not shown: Fc tag
T6 sequence (looked up): B2 chain

[16] = target: T1, Biotin-labeled human BCMA; experiment: blocking ELISA (OD450): human APRIL coated, antibody premixed with Biotin-labeled human BCMA; blocked ligand APRIL; IC50 table in the figure; remark: listed apart in the source
[17] = target: T7, human BCMA on H929 cells (human, UniProt Q02223 1-184); experiment: flow cytometry (MFI) on myeloma cell line H929 expressing BCMA; EC50 table in the figure; curve still rising at about 60 µg/mL
T7 construct: whole, on cells; also called human myeloma cell line H929 cells expressing BCMA
T7 sequence (looked up): T5 sequence (looked up)

[18] = target: T2, monkey BCMA on BCMA-CHO cells; experiment: flow cytometry (MFI) on CHO cells expressing monkey BCMA; EC50 table in the figure; curve still rising at 10 µg/mL
[19] = target: T3, monkey BCMA (recombinant antigen, tag …); experiment: ELISA (OD450) on coated monkey BCMA; EC50 table in the figure; remark: listed apart in the source
[20] = target: T3, monkey BCMA (recombinant antigen, tag …); experiment: as above; remark: listed apart in the source
[21] = target: T6, human-BCMA-Fc; experiment: ELISA (OD450), GSK2857916 titrated up to 10 µg/mL on Human BCMA-Fc; EC50 table in the figure
[22] = target: T8, human-APRIL-Fc (human, UniProt O75888 115-250, limits assumed); experiment: ELISA (OD450), plate coated with APRIL 4 µg/ml, human BCMA titrated up to 10 µg/mL; EC50 table in the figure
T8 construct: Bought from ACRO Biosystems, APL-H5267; also called human APRIL protein; ACRO Biosystems APL-H5267; not shown: Fc tag
T8 sequence (looked up): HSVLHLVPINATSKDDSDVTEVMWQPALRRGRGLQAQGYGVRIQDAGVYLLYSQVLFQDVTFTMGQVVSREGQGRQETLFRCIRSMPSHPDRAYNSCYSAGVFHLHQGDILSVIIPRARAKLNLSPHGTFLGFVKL

[23] = target: T8, human-APRIL-Fc; experiment: ELISA (OD450), plate coated with APRIL 8 µg/ml, human BCMA titrated up to 10 µg/mL; EC50 table in the figure
[24] = target: T8, human-APRIL-Fc; experiment: ELISA (OD450), plate coated with APRIL 1 µg/ml, human BCMA titrated up to 10 µg/mL; EC50 table in the figure
[25] = target: T8, human-APRIL-Fc; experiment: ELISA (OD450), plate coated with APRIL 2 µg/ml, human BCMA titrated up to 10 µg/mL; EC50 table in the figure

T3 sequence (A0A2K5UD97 entry or part of it limits assumed): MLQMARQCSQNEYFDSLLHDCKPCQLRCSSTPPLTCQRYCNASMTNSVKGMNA
T2 sequence (A0A2K5UD97 entry or part of it): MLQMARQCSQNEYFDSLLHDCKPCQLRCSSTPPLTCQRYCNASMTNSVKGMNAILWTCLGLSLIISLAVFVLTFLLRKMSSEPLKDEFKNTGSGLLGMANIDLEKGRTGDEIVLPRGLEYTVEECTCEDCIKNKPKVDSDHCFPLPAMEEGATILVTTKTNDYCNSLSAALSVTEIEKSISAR

Which IC50 [1] does the source give for B1 here?
Its IC50 is 1.79 µg/mL.

And the EC50 [2]?
The EC50 was 0.642 µg/mL.

What about the IC50 [3] of the same binder?
The IC50 was 1.41 µg/mL.

What about the IC50 [4] of the same binder?
Its IC50 is 1.6 µg/mL.

What about the EC50 [5] of the same binder?
The EC50 was 2.88 µg/mL.

And the IC50 [6]?
The IC50 was 1.36 µg/mL.

And the EC50 [7]?
The EC50 was 0.514 µg/mL.

What about the Kd [8] of the same binder?
Its Kd is 0.352 nM.

And the koff [8]?
The koff was 0.000111 s⁻¹.

What about the kon [8] of the same binder?
Its kon is 317000 M⁻¹ s⁻¹.

And the EC50 [9]?
The EC50 was 0.341 µg/mL.

And the EC50 [10]?
The EC50 was 0.772 µg/mL.

What about the EC50 [11] of the same binder?
The EC50 was 0.77 µg/mL.

What about the IC50 [12] of the same binder?
The IC50 was 1.37 µg/mL.

What about the EC50 [13] of the same binder?
The EC50 was 1.09 µg/mL.

And the EC50 [14]?
Its EC50 is 0.293 µg/mL.

And the Kd [15]?
The Kd was 0.0539 nM.

What about the koff [15] of the same binder?
The koff was 1.19e-05 s⁻¹.

What about the kon [15] of the same binder?
Its kon is 220000 M⁻¹ s⁻¹.

What about the IC50 [16] of the same binder?
Its IC50 is 1.51 µg/mL.

What about the EC50 [17] of the same binder?
Its EC50 is 6.8 µg/mL.

And the EC50 [18]?
The EC50 was 7.22 µg/mL.

What about the EC50 [19] of the same binder?
The EC50 was 0.749 µg/mL.

What about the EC50 [20] of the same binder?
Its EC50 is 0.862 µg/mL.

What about the EC50 [21] of the same binder?
The EC50 was 0.304 µg/mL.

For B2, which EC50 [22] is on record?
The EC50 was 1.57 µg/mL.

And the EC50 [23]?
The EC50 was 2.05 µg/mL.

What about the EC50 [24] of the same binder?
The EC50 was 1.07 µg/mL.

What about the EC50 [25] of the same binder?
The EC50 was 1.28 µg/mL.
